Experimental data as given in the DeepSol protein solubility set.

Test: soluble on expression in E. coli; label from the status in PepcDB or PDB records

Sequence | soluble on expression in E. coli
MAVTNVAELNALVERVKKAQREYASFTQEQVDKIFRAAALAAADARIPLAKMAVAESGMGIVEDKVIKNHFASEYIYNAYKDEKTCGVLSEDDTFGTITIAEPIGIICGIVPTTNPTSTAIFKSLISLKTRNAIIFSPHPRAKEATNKAADIVLQAAIAAGAPKDLIGWIDQPSVELSNALMHHPDINLILATGGPGMVKAAYSSGKPAIGVGAGNTPVVIDETADIKRAVASVLMSKTFDNGVICASEQSVVVVDSVYDAVRERFASHGGYMLQGQELKAVQNVILKNGALNAAIVGQPAYKIAELAGFSVPETTKILIGEVTVVDESEPFAHEKLSPTLAMYRAKDFEEAVEKAEKLVAMGGIGHTSCLYTDQDNQPERVAYFGQMMKTARILINTPASQGGIGDLYNFKLAPSLTLGCGSWGGNSISENVGPKHLINKKTVAKRAENMLWHKLPKSIYFRRGSLPIALDEVITDGHKRALIVTDRFLFNNGYADQITSVLKAAGVETEVFFEVEADPTLSVVRKGAELANSFKPDVIIALGGGSPMDAAKIMWVMYEHPETHFEELALRFMDIRKRIYKFPKMGVKAKMIAVTTTSGTGSEVTPFAVVTDDATGQKYPLADYALTPDMAIVDANLVMDMPKSLCAFGGLDAVTHALEAYVSVLASEFSDGQALQALKLLKENLPASYHEGSKNPVARERVHSAATIAGIAFANAFLGVCHSMAHKLGSQFHIPHGLANALLICNVIRYNANDNPTKQTAFSQYDRPQARRRYAEIADHLGLSAPGDRTAAKIEKLLAWLESIKAELGIPKSIREAGVQEADFLAHVDKLSEDAFDDQCTGANPRYPLISELKQILLDTYYGRDFTEGEVAAKKDVVAAPKAEKKAKKSA | soluble
MTIFRPGLLTTIQDLGRTGYLKYGVIVSGPMDEYAHRMANLLVGNDEKAALLEMTFIGPTIQFTSDQLIAMTGGDLSPTIDGHSVPMYRPVFVKKGAVLSFGRCKTGCRSYLAIGGGIDVPKVMNSRSTYLRAKIGGFQGRALVEGDELICGAPPEQTERLVKTCQKGIVHSFATTKWSVVSSQRSRDGAEKVVRVTVGSHYEQFSEASQHKFFSETFQVTSKSDRMGYRLKGPTLERLEEQELISEPISVGTIQVPADGNPIILMADRQTTGGYPRIAHVIAVDLPIIAQAKPGAAIRFQQASLKEAERLYIRRAREFNELKTSIYLQTRLEHHHHHH | not soluble
MAEEVRAFSLPSRRVVLQDEKMEQDEEHSSPTRSTSSNSDEPTETIESGDQFDVNEPIPTIETLEPVIISAASVQQLPAISLSGNNAQRTLWIGDVPTDWTEETLSQVFTECGHAPYKVKRVYVKDELKGYCFIEFITFDEARQTLYDLNGNRIPGFKDIRFNLCFANDSYNPNSEFNLHVSSVPDDMADAELYRIFDKYQSCRGAKMFRFVDGSSKGSGFVRFGNQTDQQMALVEMHRTKVGGCRIILKLAGSRGERLDRGESRQFKSQRNDRRRDEKSGQYRNGTAVPQQTQVYDAYGNPVVVPVDKNIYGTDHPWGPFPDDPDLDSIIGLDLLTTKYRPQIANKRLMIDTDQFMLDLESSRWSSIAFNTNIKKEDFEKRITDNPWTAVP | not soluble
EVQLVESGGGLVKPGGSLKLSCAASGFAFSSYDMSWVRQTPEKRLEWVAYISSGGGSTYYPDTVKGRFTISRDNAKNTLYLQMSSLKSEDTAMYYCARPDYRSYAMDYWGQGTSVTVSSAKTTAPSVYPLAPVCGDTTGSSVTLGCLVKGYFPEPVTLTWNSGSLSSGVHTFPAVLQSDLYTLSSSVTVTSSTWPSQSITCNVAHPASSTKVDKKIEPRGP | soluble
MSVIIISRNQEKLDRAAKKIELNTGGKVKVIAADFTKDDIYGHITENIEGLDIGVLVNNVGILPSQIPCKLLETSDLEERIYDIVNCNVKSMVKMCRIVLPGMQQRRRGVILNVSSGIAKIPCPIYTLYAASKVFVERFSQGLQAEYISKGIIIQTVAPFGVSTAMTGHQKPDMVTFTAEEFVRSSLKYLKTGDQTYGSITHTLLGRIVQSIPTWVLQSETFQHHFQEYVKNRDRR | not soluble
MNKRENPIYKVIFLNQGQVFEMYAKQIYQSDLWGFLEIEEFVFGERTQVVVDPSEEKLKAQFEGVLRSFVPMHAIVRIDEVERLGTPKISEAKGAGNVMPFPMPMPGKSD | not soluble
MGSDKIHHHHHHMKSPEEVTKWVRQRYQRQRWAWLDGGGAWPLQVSLDLPTQKVALADPSAVRTWSSSWADWLAVHPADASRPLPELLTATVAWRNMGEQTLPGALAFSSPECVADYCGDGKVWRRIVSRRATMLARWPALHASGFGSNYTALGEFKDEDFERLLAVLEWLVANPKSGIYLRQLPVPNIDTKWIDLQRRGVVADLFSRIIKPQAALQAVQSFVEGEGAEIDATGQAYSIEKESSNFYDTCGLLRPPVKLRILILCPKLRTQVGGLRDIEATIEDWAQLQLKPRQLLVVENKDTCLAMPDVDGVVAVIKLGNAVALVTRIAWLVRVPVLYWGDIDTYGYSILVQARKKLHDVRSVLMDRSTVETHLDRLVEEGQQTKSIDRSLLTAAELDVYDALLAHDWGTSRRLEQERLEWPSALRTVLSALHQRESKSA | not soluble
MAHHHHHHMPDDRRRASRTDDALVAHRPADSASPVERRTRVDPRTHTKSLYQRGRDGSEMYASYYNSNDDPAFQERFNRHSNGNAFVQSAQFTYVSHGGCGGRNHTVVKERQRPVVVEEPDDADRHEASTDSGNNANVHAKHKDKEKRRSSKQDPIVEEPDSEDDYNDADSRAYRRGGKKGEFGSHPDALEFWRDPWGMESIMAEMMQPPLGFGDAFPFTSRRAPAQRRLKSPSVSNESKWQLSPHTRGGVMSSPFTGDLFGTGGPESPFRMMEAMQYHMHQQRAAMFGGVDPFRHFM | not soluble
MGSDKIHHHHHHMKQVDYIIVGQGLAGSCLVQSLWHEKQSVVVIASSERKASSTVAAGLYNPITGKKMLLTWNAAVLFPYLDLFYRSAERELDTTILYPKAIVRPFTDIQAQNDFWAKSTPEIAAFAEPEQNIEKYDPYIWFPYGGLITKHSGYVDVQAFLGAIKQKLVEKDQYIEETFDHAALQFSTNSVAYKGIQAKKIIFAEGFHNTRNPIFNWVPVKGMKGDVLTLDIEAYALKEVVNKHFFIIPLPNGKFRMGSSYIREFEDDAPTEGGLKEITEGAHTILKKPFVVIEQKAGIRPVVPDHRPIIGEHPEQPLALIFNGLGTKGVSIAPYASKTLTNFLLLNQEIDQSMSVNRFNYLYFKQKNN | not soluble
MGSDKIHHHHHHMSSSAKPLPTIERPREDASGRARVPGWVIGIDLGGTKILAGIARTQEQIIATREEPTLHGEDAPVLAQMARLITSLLSDAGALAQELDNVVIGVPSAVDPQTGLSSLSPNLALPVDRPLADLMSRFVSCPVTVENDVNLAAYGEAWAGAGQGLGSLVFVSFGTGVGMGIVLDGEPWRGAAGRAGEIAYLPVGAAPHETAPLSENGLYEDGVGTSGIRQRFTRDGGTVAELFSLARSGNEQARLAIDSVAKQASIGIAAVHALLDPAVTVIGGGIGSQPEFFTLLQAHLQPLLPFESPLKQSRLGVQAGMIGAVALALKNRVPHPEKSNAENL | not soluble
SEAQQKNYTFRCLQMSSFANRSWSRTDSVVWLGDLQTHRWSNDSATISFTKPWSQGKLSNQQWEKLQHMFQVYRVSFTRDIQELVKMMSPKEDYPIEIQLSAGCEMYPGNASESFLHVAFQGKYVVRFWGTSWQTVPGAPSWLDLPIKVLNADQGTSATVQMLLNDTCPLFVRGLLEAGKSDLEKQEKPVAWLSSVPSSAHGHRQLVCHVSGFYPKPVWVMWMRGDQEQQGTHRGDFLPNADETWYLQATLDVEAGEEAGLACRVKHSSLGGQDIILYWGSLHHILDAQKMVWNHRHHHHHH | soluble
MESYIQNLFAERIGGKSFGKEDVIYKFEKIKRAKQAAKLKYPDMELIDMGVGEPDEMADESVVEVLCEEAKKHVNRGYSDNGVQALKDEIPIYLEKIFGVKDLDPVNEVVHSIGSKPALAYITSVFINPGDVTLMTVPGYPVTATHTKWYGGSVETLPLLEKNNFLPELDAISKEVRENAKILYLNYPNNPTGAQATKKFYKEAVDFAFENDLIVIQDAAYAALTYGDKPLSFLSVKDAKEVGVEIHSFSKAYNMTGWRLAFVAGNELIVRGFAAVKDNYDSGQFIPIQKAGIHCLRHPEITEKTRAKYERRLSKMVKILKEAGFNAKMPGGTFYLYVKAPIGTKDGAKFANAEEFSQFMIKEKLISTVPWDDAGNFVRMAACFEAFKDGEISIEEEDRILNEVKRRLTEVEFVFE | not soluble
HHQELCTKGDDALVTELECIRLRISPETNAAFDNAVQQLNCLNRACAYRKMCATNNLEQAMSVYFTNEQIKEIHDAATACDPEAHHEHDH | soluble
FQVPMSNLLTVHQNLPALPVDATSDEVRKNLMDMFRDRQAFSEHTWKMLLSVCRSWAAWCKLNNRKWFPAEPEDVRDYLLYLQARGLAVKTIQQHLGQLNMLHRRSGLPRPSDSNAVSLVMRRIRKENVDAGERAKQALAFERTDFDQVRSLMENSDRCQDIRNLAFLGIAYNTLLRIAEIARIRVKDISRTDGGRMLIHIGRTKTLVSTAGVEKALSLGVTKLVERWISVSGVADDPNNYLFCRVRKNGVAAPSATSQLSTRALEGIFEATHRLIYGAKDDSGQRYLAWSGHSARVGAARDMARAGVSIPEIMQAGGWTNVNIVMNYIRNLDSETGAMVRLLEDGD | soluble
NTTHAYVHASPPHSVPIAGASTAAVTHQQATQLKGTDELYGLGNLPSSGPGRWEYLANPENWHPERRKLHEKLLDEARSSALTLAESLERDGCQPTLFALRGNTATGKTRIATKKIPALAAALEKTGGKGCINPDVFKSSLAKSEAGAKIFSSAQVHNESCFLADHFEDGLRSQRTGSGAIASIVVDKRLARAYEIDSYIELAKETGRKVELCDIDAPLENSLTGVLQRKPEGEDPRPPYPVVSSGFVAVRSNRMSVIDRFIADPSLGNYRLFGTAEDGKKVMVASVMGGELSVEDADLYEKITSPQSSVTGDLADKIIDNELIDRLTNNIDDPERAANTRAALEKYNGKSWSAALAAHSELI | not soluble
MQSIPIKNVGESRLVDPFQRQYYYLRLSITDQCNFRCTYCLPDGYQPEANKPSFLTLKEITHLAQAFAEMGTEKIRLTGGEPTLRKDFISIAESITNIDGIRQLAVTTNGYRMAKDVADWKKAGITSINVSVDSLDPKMFHQITGINKFDDVMRGIDRAFEVGYNKVKVNSVLMKNLNDKEFEQFLAWVKDRPIQMRFIELMQTGEMDSFFDKFHLSGQVLADKLLKNGWTLQHKSHTDGPAKVFTHPDYAGEIGLIMPYEKNFCASCNRLRVSAKGKLHLCLFGEEGIELRDLLQSHEQQGILQARIFAALQGKREHHYLHIGDTGVRNHLASIGGMGHHHHHHSH | not soluble
MMNEKNPPLVSILIPTYNRPHYFKIALESALAQTYSNIEIIIGDDSTNDETATLIREQYLPNYKNITYIRNTPTLGQFHNDLMLIEKSNGEYINFLMDDDVFYKHKIQKMMTYFEQDPNKNLALVTSYRVRIDDHGNLIGDSHPTQRLYSEDTPLNGIFLGNWMLKGGHNIIGEPTTTLFRKELLTEPFGTLKERQYSCSVDMASWISLLSKGNAIYISEPLSQFRYHAGQQIHNKLLQGCEDFTHLVITAKEYGFLQNTTDYRAALLSAYQWCKSSLKYYLHQLDIFPDAHVRLSHCLDIIIKELNNLEHHHHHH | soluble
SVFKFIDLPQEEPRPSGGGKVTDLVLDNPHAQDCWPNQGHMDVQGLTVKYTEAGRSVLQNLSFTVEAGQSVGVLGRTGSGKSTLLSALLRLASTDGEISIDGVSWNSVTLQTWRKAFGVVPQKIFILTGTFRMNLDPHACHSDEELWRVAEEVGLKSVIEQFPDKLDFQLEDGGYVLSNGHKQLMCLARSILSKARILLLDEPSAYLDPITLQVLRKTLKQSFSNCTVILSEHRVEPLLECQSFLMIEGSSMKRYDSIQKLLNETSHLKQAISAAERLKLFPLHRLNSSKRPPQSQQPKITALQEEAEDEVQDTRL | not soluble
